In test [1] the target is Recombinant rat Nrp1, conjugated to an Fc fragment of human IgG1 (Nrp1-Fc) (rat) (UniProt Q9QWJ9). Kind of test: ELISA.
Test [2] deals with T1, LAP C-terminal peptide QSSRHRR.
T1 peptide: Ac-QSSRHRR-OH
Put plainly: ELISA.

On to “LAP-TGF-β1 (the latent form of TGF-β1) (from UniProt P01137 30-278) (complex)”, for which the EC50 in test [1] was 338 pM.
As for Active (mature) TGF-β1 (ligand), in test [1], the IC50 is 890 pM and the Kd was found to be 40 pM.

B1: Recombinant rat Nrp1, conjugated to an Fc fragment of human IgG1 (Nrp1-Fc) (Fc fusion, UniProt Q9QWJ9 22-855, looked up)
chain: FRSDKCGGTIKIENPGYLTSPGYPHSYHPSEKCEWLIQAPEPYQRIMINFNPHFDLEDRDCKYDYVEVIDGENEGGRLWGKFCGKIAPSPVVSSGPFLFIKFVSDYETHGAGFSIRYEIFKRGPECSQNYTAPTGVIKSPGFPEKYPNSLECTYIIFAPKMSEIILEFESFDLEQDSNPPGGVFCRYDRLEIWDGFPEVGPHIGRYCGQKTPGRIRSSSGILSMVFYTDSAIAKEGFSANYSVLQSSISEDFKCMEALGMESGEIHSDQITASSQYGTNWSVERSRLNYPENGWTPGEDSYREWIQVDLGLLRFVTAVGTQGAISKETKKKYYVKTYRVDISSNGEDWITLKEGNKAIIFQGNTNPTDVVFGVFPKPLITRFVRIKPASWETGISMRFEVYGCKITDYPCSGMLGMVSGLISDSQITASNQGDRNWMPENIRLVTSRTGWALPPSPHPYINEWLQVDLGDEKIVRGVIIQGGKHRENKVFMRKFKIAYSNNGSDWKMIMDDSKRKAKSFEGNNNYDTPELRAFTPLSTRFIRIYPERATHSGLGLRMELLGCEVEVPTAGPTTPNGNPVDECDDDQANCHSGTGDDFQLTGGTTVLATEKPTIIDSTIQSEFPTYGFNCEFGWGSHKTFCHWEHDSHAQLRWRVLTSKTGPIQDHTGDGNFIYSQADENQKGKVARLVSPVVYSQSSAHCMTFWYHMSGSHVGTLRVKLHYQKPEEYDQLVWMVVGHQGDHWKEGRVLLHKSLKLYQVIFEGEIGKGNLGGIAVDDISINNHIPQEDCAKPTDLDKKNTEIKIDETGSTPGYEEGKGDKNISRKPGNVLKTLDP
For B1, in test [2], the 50% effective concentration (EC50) worked out at 4180 ± 990 pM.

Values taken from publication PMC2504713 (Journal of Leukocyte Biology, 2008).
